From the supplement of paper PMC12636428

Tested on: Saccharomyces cerevisiae
Assay: transcriptional activation domain activity (GFP:mCherry ratio, weighted mean of sorted bins, harmonized to initial dataset scale) (arbitrary fluorescence ratio units); higher = stronger transcriptional activation
Conditions: beta-estradiol 1 µM; induction time 4 h
Summary of the method: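 The listed activation activity is a read-weighted mean of bin median fluorescence, averaged across barcodes and linearly mapped onto the initial dataset scale. Barcoded tiles, fused to an estradiol-inducible synthetic transcription factor, were integrated at URA3 in yeast diploids bearing a GFP reporter. Cells were held 4 hours at 30 °C in SC with 1 uM beta-estradiol, sorted into 8 GFP:mCherry bins, and sequenced, and tiles with fewer than 50 reads were excluded.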

Sequence | transcriptional activation domain activity
YTIGFVGFVMSLQKGYLKQQFGLFCWVHMSLLIIVLSSHFVINNILEGLIWFW | 54600
FLRLFCFAFIMLVGILPTQAYVVYADVKLSMPWHAYSWSNMHGPSWHTVNMVP | 51400
LFSFSVAYRYFYFFWYVVLERQIRIFRWIAVSIFVWTLVIGFSLYQGLTKQYI | 31800
VLRMFFVSQANTFVILSLLGLCLPSRALPAAFGFSPSYAPLLIRLYLAQTLFT | 25800
TYTPPVEKPDVEEQSRTRLIGLAALNGASSSEGAFSSSTEFPRQVRVIVPALL | 39800
YYGWLPFGISSILVEIPYCMFFCASFMCGFYWTAGLVNHPVNCGYFYLMLMFF | 69900
PDELVKSASRLEIDDPSPVTADGAKKSKNQLKKEQKARQLQLQRSLGPASGAP | < 6570
SWRRLPLAMLNFSRAVTFRWTIIIARTYSLNLADVLLTGMYITILFTWNFHNS | 40000
SNRGSGGGGRATGAHSRRGRGSGDRGGRSSARSRSKSPGAEVAEAGEPAPAVP | 17900
VYILVSYFLLGPRCLILIASTFLLSYHSSWSIVTRRVLWRFKVVRLIFFYLTG | 61700
RADHARRKSPARSRSASASSRSSSRSRSGSRGSDQANRRRRAASPGAQGDGRK | 39900
KFSLGGALYLLTRYCVLLQLIFDVTYEMQPPWTLNNVVWVANISDLVSGISIH | 34400
MPDVWLSWLVLSFAPSPPFHHFLWFWFCLIAWFIFFRPITWTFDTLFWFLFLP | 43400
RGTIRPGFLIYFFILFLWVFQIHCIMQIIVNRIALLHVSPTIVRRLKWGIFSI | 66300
SGDAVMKDAVEEAGAAAAEAKPEPEPKPEPKPKRKAPAKKAKIVAAVSAAIAN | 26600
MREGWVWISEYRVLCLYFFFFLFLFFSNSFFFSPIYLFLFFTLFLVCLLCFRP | 53400
PYILPLLILSKRLHSIFMLRCFNDCFAILFLFLAILCFQRRHWTVGSLIYSWG | 48300
HMLLRQFLILNLFNLIYLHLFLLLWLLLQQLLYLMILFKFPIPYLLALSYRLS | 55300
MLFPPPPFSLFFFSLPFFLFFKTDLFFPCLIFLIPLYPFSPLVGDRLAILLGV | 55100
LYVSLHAVVGNVAEFYFVRYGLALVCALCQTIMFQVTSVTLNGRIGLFFLIAT | 45400
MLHVVGGYSRVRTWVIFLFVFRIGGRAYIDWIGFFFMGFLHWIRFIVVMVLFL | 41800
MFTFNASSTINITLSILCYFIFLISVLLIRLYLNNSFMLFSLFFFFYFIYVIL | 61200
LCRVQESILQTFGMTGLLCMQRGINFTIYCVLTCTVLHLVAITSPDPDLNRDA | 40200
PRQPRERKPRAEGEEGEHVEGQQEAGERRRERRPRKPRNKSAGGAGAGAEGAA | 17100
GCKRESQEREEDKNIEKIRKKKQSVVNRKSKRRSETNRRNIKRNNRQHAARER | 55600

Sequence | transcriptional activation domain activity
MGLNLLVCIILVLHYFSTLLISFYFLLTVHTFRHIFAHSHSPVCMCLIFLTII | 50200
WRYGKCQVCGYVMINYPGPNQRHHCLEGRVRTVYNTVTFPCYLEVHVVQMIWL | 60800
AEPSIYSNLFLDARLPNNANSTTGLNDNDYNLDDTNNDNTNSMQSILEDFVSS | 75100
ENLRTVGLGSVRDICLRNASEQAILTIIDFPLRVLAMIAQIRTGLWVRNGFAI | 53000
MSRVLPEKLPLHLQAACLPQRDLLTALPVVALRCYTDGPQLLRGLVCCLCDMW | 61600
SFFFFFSYFYLDSLFLVLLPFTLCFYLFLVLWVCWLVGWFVGWLARFALSLSL | 55400
RAGASPEEASAQSGGSRSKEAEESGSSPTGGEVGKSGGKNSSSSKSVEEKSKD | 29700
LASRNPPTATSPCTRTPAPAPAPRTASTTRASTPCTASTAPRAATSAACSPAA | 53100
TPANSSSTMALVPKEEQKEEEEKSTPADSGSTTASVPKEEEKEEEKSTPADSG | 44400
STGGARKGSAAPSKTSSSNISGRDKEKSRSKEKLGSQSALAAGSTPAPKAAAA | 47900
EKTEKKAKAPKSPKKEKKKEASETAAAPATEEPAKEAAKEEAAPATEAPAATE | 31300
EKPKPEESPKGRGKSSGEPAPIPPSNGAADSKPSSAGAGNGSGSGSGDGGRKG | 39800
MISWLLCFFGFRGGFFYMVFFLICTIFCFAVFGFRFLQLSTFFFHNIFLMFFF | 51900
PAPTGDSPKKEKKRKRESAVAEDAPAAAEAEEADEPEKKKKKKKKHAEAEGAN | 23700
NGELPHENGGRETKVKFEGTAAPKESRIGQMRQHLLLLAESQHRFIRHCGTHG | 29600
MGLYIFIFSFSFFLFFFFFFFFFFFVLGLVFVSMRTERLLSSQYFFFFWFFSG | 27800
PAVRVLPCNHGPGGDLCIICRTPLFQLTLFKYLMTKMCHVRTWLMFGILDLTF | 47700
KEVMDQIHAIWCILLYLYYGTLETDHVFRFCFAPNVSRPLSELEQRFFNERHG | 48000
MFLCLQFRYLFCCGLKHWLRWGDALCLRVLMQGRCCWCGKRKFMLSVSILSWR | 53600
MILMIFTYLLLTIPVVVGLIVASLLHFNFIHLNVLYACSLTSLQLINPCMVLF | 50000
PVNYLRLTNIGVCDMDDGYDLACHLMLNEPDADSCALLRVLIHRLKECTNLNI | 47100
ILALSWGGGLYPWASYHVLVPLILGFCILVVFALYEIYMPLKYPLIPMSLFLN | 40400
RKSELIAKYGLLPRDLRKIDSSVLPHILVRHSAILISLLHLRVLIKADRVLVF | 57200
AASKKERQSESHASSKRARSSKNGRGADADSSDEEEAGRSSSRKSRRTSTGDR | 30200
LILARRKGDDRFRRIFMFTMCRLLVTRNHNPDLRRLVTEYLLNVDRFMILLLG | 59000

Sequence | transcriptional activation domain activity
MRYGHLYTWIIILKYSLVLHQVFSLYLCIIFLAIIVFLIFVYWLMLEIFLVLF | 80500
DVVDHSGDLFIRCNEIFGRQCIRNYIPSDPIWLIPLLGLLHRRLMYKVRLIYP | 71700
TEVHVARERIMSYALNLFQLAAGPSEYLANLQTGYHYVACLQWLLRFKIFALV | 57300
GFLLSYSLIRLSLTSHLLFGVFLLIQDIMLVLFSLYPTYPILLFSFLIFIGSF | 35500
MIGDGGRVFRVHSSLSLSFVIFFFSVLLFFFCPFSFVFYCIYAFLVPGLVVLV | 35200
LGILLLLFDWRVLFNAAQMSCALHESCIALSVMKARNQEWKWWCLGSTYYVYE | 44100
MDFFYIFNYLISYITNRLMILLYYFTHTHFLLFPLSLFYYYFSCSCFFLLFPP | 36500
INKGTNRFSETVLPPQMAAEQSWSDSNMELEICLDYLHNELEVIKKRQEDFEC | 60200
TLMVLCENSYTTISRFILLDSMLLFFTFTTMLCFARFHNLQSRSFSFQWWLWI | 51800
HLQTITINSEGDCGHCLSKYGILVIPTLERVVLVSREGRYPWSSWYLELRVFS | 32100
YILAVGLILRLISYLSRAKVRLMYHWSELWRNLLSLIRFLNTYSADLLSSSTP | 66700
FYSRVASSTLLFFWLTSLISNGIIIRTNYLLDQHHSRLLLFALLVVQELLCVL | 68600
LGVFGVALYVLSFFENFDSCHWCFHYDLWSPMAYILMRYSIEAILWSSRLALF | 70600
GESNASLTKTLDSVLRNCFPQRSRMVLPVELPLDVFVCIVHFLLVRQFEYGQE | 49700
YMCTCAWSVIWAQQLYTRGPLLQFIAKHTNYAGKPSMTFNQIVLLWVLYQIQG | 49800
MSNLELMRFLTKPDVKLELSVKIDDIYWNCIFSLRYREMYTASLLRYMVFFLR | 52700
MARCYRLVMCFPFSLCFEYSALILTCSFFSPFIPFRLWCHAVPCGSGVFLFLH | 65700
EDRSEKRKRKRDDEVEPKKSKSKWKPEEKSDEDPKSTPKSNGGKRRRPERPEK | 27300
IGQFRFLQRLVLVHGRWSYRRLAETISNFFYKNMIWTFSIFWYQVFCNFDITY | 24600
RGDGMEERKGEKRGRKGGERGGRGEGGHRGRKGDTEGGRGTGEKRGGKGGKRG | 33500
MLQRFWYLALLAKRRTDLFSFKLSCLELLCFLPISMVVCHIWVIMGPLFFILF | 50800
MFCLRSWLPLLFIPTNASPIFIFLFFVSTYFLNRPCVYCSFLLLILFASSCHW | 52500
HSRSPSRHRRRSYSRSRRYDSRSPRRRRSGSPSRRIVDEEEAAVTDGFIRAVA | 37300
VKGAGKGKGKDDGKKNSMVLLLLCSLLSVNFMLGNYAPQLWILLLVPMSLAAP | 45000
